US20240150451A1 (Janssen / Centocor, published 2024)

T1: Tau peptide Start 415 Stop 434
T1 peptide: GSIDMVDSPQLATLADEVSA

T2: Tau peptide Start 419 Stop 438
T2 peptide: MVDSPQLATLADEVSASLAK

T3: Tau peptide Start 411 Stop 430
T3 peptide: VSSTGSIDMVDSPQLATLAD

T4: Tau peptide Start 417 Stop 436
T4 peptide: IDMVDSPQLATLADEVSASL

T5: Tau peptide Start 421 Stop 440
T5 peptide: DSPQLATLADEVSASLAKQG

T6: Tau peptide Start 3 Stop 22 (Synthetic linear peptide immobilised on a Pepscan array; the attachment to the array cannot be carried by the letters.)
T6 peptide: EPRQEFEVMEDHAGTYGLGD

T7: Tau peptide Start 413 Stop 432
T7 peptide: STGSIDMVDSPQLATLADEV

T8: Tau peptide Start 422 Stop 441
T8 peptide: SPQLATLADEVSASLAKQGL


Experiments:
[1] = target: T9, recombinant full-length tau 2N4R (control tau) (human, UniProt P10636 2-758); assay: direct ELISA on full-length 2N4R Tau coated at 10 ng/mL
T9 construct: also called recombinant WT (2N4R) tau; Rec; Tau
Method: (§1) Binding to recombinant WT (2N4R) tau was analyzed by ELISA. Full-length Tau protein (1 ng/mL or 10 ng/mL) was directly coated to the plate and incubated with different concentrations of either recombinantly- or hybridoma-produced PT/66, PT/69 or hTau/60 antibodies (FIG. 1). […] No substantial difference was observed between binding profiles of recombinant and hybridoma produced antibodies.

[2] = target: T9, recombinant full-length tau 2N4R …; assay: direct ELISA on full-length 2N4R Tau coated at 1 ng/mL
Method: as §1

[3] = target: T1, Tau peptide Start 415 Stop 434; assay: Pepscan ELISA on an array of linear 20-mer Tau 441 peptides; set-up: peptide ELISA signal (no name or unit printed): unit not given here
From the text: (§2) An amino functionalized polypropylene support was obtained by grafting with a proprietary hydrophilic polymer formulation, followed by reaction with t-butyloxycarbonyl-hexamethylenediamine (BocHMDA) using dicyclohexylcarbodiimide (DCC) with N-hydroxybenzotriazole (HOBt), and subsequent cleavage of the Boc-groups using trifluoroacetic acid (TFA). Standard Fmoc-peptide synthesis was used to synthesize peptides on the amino-functionalized solid support by custom modified JANUS liquid handling stations (Perkin Elmer). Synthesis of structural mimics was done using Pepscan's proprietary Chemically Linked Peptides on Scaffolds (CLIPS) technology. CLIPS technology allows to structure peptides into single loops, double loops, triple loops, sheet-like folds, helix-like folds, and combinations thereof. CLIPS templates are coupled to cysteine residues. The side-chains of multiple cysteines in the peptides are coupled to one or two CLIPS templates. For example, a 0.5 mM solution of the P2 CLIPS (2,6-bis(bromomethyl)pyridine) is dissolved in ammonium bicarbonate (20 mM, pH 7.8)/acetonitrile (1:3 (v/v)). This solution is added onto the peptide arrays. The CLIPS template will bind to side-chains of two cysteines as present in the solid-phase bound peptides of the peptide-arrays (455 wells plate with 3 μl wells). The peptide arrays are gently shaken in the solution for 30 to 60 minutes while completely covered in solution. Finally, the peptide arrays are washed extensively with excess of H₂O and sonicated in disrupt-buffer containing 1% SDS/0.1% beta-mercaptoethanol in PBS (pH 7.2) at 70° C. for 30 minutes, followed by sonication in H₂O for another 45 minutes. The T3 CLIPS carrying peptides were made in a similar way but now with three cysteines.
(§3) The binding of antibodies (recombinantly expressed as IgG2a) to each of the synthesized peptides was tested in a pepscan-based ELISA. The peptide arrays were incubated with primary antibody solution (overnight at 4° C.). After washing, the peptide arrays were incubated with a 1/1000 dilution of an appropriate antibody peroxidase conjugate (SBA; Table 4) for one hour at 25° C. After washing, the peroxidase substrate 2,2′-azino-di-3-ethylbenzthiazoline sulfonate (ABTS) and 20 μl/ml of 3 percent H₂O₂ were added. After one hour, the color development was measured.

[4] = target: T2, Tau peptide Start 419 Stop 438; assay: as above; set-up: peptide ELISA signal (no name or unit printed): unit not given here
From the text: as §2, §3

[5] = target: T3, Tau peptide Start 411 Stop 430; assay: as above; set-up: peptide ELISA signal (no name or unit printed): unit not given here
From the text: as §2, §3

[6] = target: T4, Tau peptide Start 417 Stop 436; assay: as above; set-up: peptide ELISA signal (no name or unit printed): unit not given here
From the text: as §2, §3

[7] = target: T5, Tau peptide Start 421 Stop 440; assay: as above; set-up: peptide ELISA signal (no name or unit printed): unit not given here
From the text: as §2, §3

[8] = target: T6, Tau peptide Start 3 Stop 22; assay: as above; set-up: peptide ELISA signal (no name or unit printed): unit not given here
From the text: as §2, §3

[9] = target: T7, Tau peptide Start 413 Stop 432; assay: as above; set-up: peptide ELISA signal (no name or unit printed): unit not given here
From the text: as §2, §3

[10] = target: T8, Tau peptide Start 422 Stop 441; assay: as above; set-up: peptide ELISA signal (no name or unit printed): unit not given here
From the text: as §2, §3

[11] = target: Tau peptide Start 1 Stop 20 (Synthetic linear peptide immobilised on a Pepscan array; the attachment to the array cannot be carried by the letters.); assay: as above; set-up: peptide ELISA signal (no name or unit printed): unit not given here
From the text: as §2, §3

[12] = target: T10, PHF-tau (paired helical filament tau; sarcosyl insoluble prep from human AD brain) (human, UniProt P10636-8 2-441, limits assumed, hyper-phosphorylated (sites not specified)); assay: SPR (ProteOn), mAb on PHF-tau, bivalent analyte fit; apparent affinity (avidity)
T10 construct: also called aggregated PHF Tau; aggregated tau (AD brain)
Method: (§4) The interactions with PHF-tau and recombinant tau were assessed by SPR on ProteOn (Bio-Rad, Hercules, CA) instrument for PT66, PT69, hTau60 anti-tau antibodies and their corresponding Fab fragments. Because of the multimeric/aggregated nature of PHF-tau with multiple copies of the epitope, and the bivalent nature of IgGs, mAb affinity was influenced by avidity in this study format. Fab affinity provides information on the intrinsic affinity of the antibody. Representative sensorgrams of mAbs and their Fab fragments binding to PHF Tau are shown in FIG. 3 and a summary is represented in Table 1 below. HT7 was used as a reference.

[13] = target: T9, recombinant full-length tau 2N4R …; assay: SPR (ProteOn), Fab on recombinant full-length tau, 1:1 Langmuir fit
Method: as §4

[14] = target: T10, PHF-tau (paired helical filament tau; …); assay: SPR (ProteOn), Fab on PHF-tau, 1:1 Langmuir fit
Method: as §4

Chain of Tau peptide Start 1 Stop 20 (Synthetic linear peptide immobilised on a Pepscan array; the attachment to the array cannot be carried by the letters.) (peptide, as listed by the source limits assumed): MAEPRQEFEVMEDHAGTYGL

Row | Binder | EC50 (read off the curve) [1] | EC50 (read off the curve) [2] | binding result [3] | peptide ELISA signal (no name or unit printed) [3] | binding result [4] | peptide ELISA signal (no name or unit printed) [4] | peptide ELISA signal (no name or unit printed) [5] | binding result [6] | peptide ELISA signal (no name or unit printed) [6] | peptide ELISA signal (no name or unit printed) [7] | peptide ELISA signal (no name or unit printed) [8] | binding result [9] | peptide ELISA signal (no name or unit printed) [9] | peptide ELISA signal (no name or unit printed) [10] | peptide ELISA signal (no name or unit printed) [11] | Kd [12] | Kd [13] | Kd [14]
1 | hTau60 monoclonal antibody (recombinant, mouse IgG2a/kappa) (antibody, V domains shown, also called hTau60 (PT1B469)) VH: EVQLQQSGPELVKPGTSVKISCKVFGYTFTDYYMNWVKQSHGKSLEWIGDINPDNGETTYNQKFKGKATLTVDKSSSTAYMELRSLTSEDSAVYYCAKGATFVYWGQGTLVTVSA VL: DVVMTQTPLSLPVSLGDQASISCISSQSLVHSTGTTFLHWFLQKPGQSPKLLIYKVSNRFSGVPDRFSGSGSGTDFTLKISRVEAEDLGFYFCSQSTYFPLTFGSGTKLEIKR | ~0.01 µg/mL | ~0.01 µg/mL | no binding | 24 | no binding | 45 | 36 | no binding | 48 | 2910 | 44 | no binding | 46 | 2920 | 48 | 0.069 nM | – | –
2 | hTau/60 hybridoma (antibody, V domains shown, parent of m1; also called hybridoma-produced hTau/60) VH: EVQLQQSGPELVKPGTSVKISCKVFGYTFTDYYMNWVKQSHGKSLEWIGDINPDNGETTYNQKFKGKATLTVDKSSSTAYMELRSLTSEDSAVYYCAKGATFVYWGQGTLVTVSA VL: DVVMTQTPLSLPVSLGDQASISCISSQSLVHSTGTTFLHWFLQKPGQSPKLLIYKVSNRFSGVPDRFSGSGSGTDFTLKISRVEAEDLGFYFCSQSTYFPLTFGSGTKLEIK | ~0.005 µg/mL | ~0.005 µg/mL | – | – | – | – | – | – | – | – | – | – | – | – | – | – | – | –
3 | hTau60 Fab (chimeric: mouse variable domains, human IgG1/kappa constant domains, His tag) (Fab, V domains shown, Fab expressed in HEK293F cells; also called hTau60 Fab fragment; not shown: His tag at the C-terminus of the heavy chain; human kappa light chain constant domain) VH: EVQLQQSGPELVKPGTSVKISCKVFGYTFTDYYMNWVKQSHGKSLEWIGDINPDNGETTYNQKFKGKATLTVDKSSSTAYMELRSLTSEDSAVYYCAKGATFVYWGQGTLVTVSA VL: DVVMTQTPLSLPVSLGDQASISCISSQSLVHSTGTTFLHWFLQKPGQSPKLLIYKVSNRFSGVPDRFSGSGSGTDFTLKISRVEAEDLGFYFCSQSTYFPLTFGSGTKLEIK | – | – | – | – | – | – | – | – | – | – | – | – | – | – | – | – | 0.026 nM | 0.427 nM
4 | PT/66 hybridoma (antibody, V domains shown, parent of m2; also called hybridoma-produced PT/66) VH: QVQLQQPGAELVKPGASVKMSCKASGYTFTSYWITWVKQRPGQGLEWIGDIHPGRGSTKSNEKFKSKATLTVDTSSSTAYMQFSSLTSEDSAVYYCARRWGFDYWGQGTTLTVSS VL: DIVITQDELSNPVTSGESVSISCRSSKSLLYKDGKTYLNWFLQRPGQSPQLLIYLMSTRASGVSDRFSGSGSGTDFTLEISRVKAEDVGVYYCQQLVDYPLTFGAGTKLELK | ~0.005 µg/mL | ~0.01 µg/mL | – | – | – | – | – | – | – | – | – | – | – | – | – | – | – | –
5 | PT66 Fab (chimeric: mouse variable domains, human IgG1/kappa constant domains, His tag) (Fab, V domains shown, Fab expressed in HEK293F cells; also called PT66 Fab fragment; not shown: His tag at the C-terminus of the heavy chain; human kappa light chain constant domain) VH: QVQLQQPGAELVKPGASVKMSCKASGYTFTSYWITWVKQRPGQGLEWIGDIHPGRGSTKSNEKFKSKATLTVDTSSSTAYMQFSSLTSEDSAVYYCARRWGFDYWGQGTTLTVSS VL: DIVITQDELSNPVTSGESVSISCRSSKSLLYKDGKTYLNWFLQRPGQSPQLLIYLMSTRASGVSDRFSGSGSGTDFTLEISRVKAEDVGVYYCQQLVDYPLTFGAGTKLELK | – | – | – | – | – | – | – | – | – | – | – | – | – | – | – | – | 0.04 nM | 0.514 nM
6 | PT66 monoclonal antibody (recombinant, mouse IgG2a/kappa) (antibody, V domains shown, also called PT66 (PT1B545)) VH: QVQLQQPGAELVKPGASVKMSCKASGYTFTSYWITWVKQRPGQGLEWIGDIHPGRGSTKSNEKFKSKATLTVDTSSSTAYMQFSSLTSEDSAVYYCARRWGFDYWGQGTTLTVSS VL: DIVITQDELSNPVTSGESVSISCRSSKSLLYKDGKTYLNWFLQRPGQSPQLLIYLMSTRASGVSDRFSGSGSGTDFTLEISRVKAEDVGVYYCQQLVDYPLTFGAGTKLELKR | ~0.01 µg/mL | ~0.04 µg/mL | – | 2930 | – | 2930 | 50 | – | 2940 | 2930 | 45 | – | 2520 | 2950 | 40 | 0.056 nM | – | –
7 | PT69 monoclonal antibody (recombinant, mouse IgG2a/kappa) (antibody, V domains shown, also called PT69/PT87; PT69 (PT1B548)) VH: QVQLQQPGAELVKPGASVKMSCKASGYTFTNYWITWVKQRPGQGLEWIGDIYPGSGRTKSNEKFKNKATLTADTSSSTAYMQLSSLTSEDSAVYYCTRRWGLDYWGQGTTLTVSS VL: DIVITQDELSNPVTSGESVSISCRSNKSLLYKDGKTYLNWFLQRPGQSPQLLIYLMSTRASGVSDRFSGSGSGTDFTLEISRVKAEDVGVYYCQQLVDYPLTFGAGTKLELKR | – | – | – | 2830 | – | 2920 | 43 | – | 2920 | 2930 | 38 | – | 1380 | 2930 | 30 | – | – | –
